{"source": "paper PMC10952681", "target": "Rhizobium radiobacter MDC 8606 N-carbamoyl-β-alanine amidohydrolase (Rhizobium radiobacter MDC 8606)", "experiment": "SEC; Superdex S200 16/60, 50 mM Tris-HCl pH 8.0, 150 mM NaCl; calibrated column; single major peak at 74.4 mL, apparent molecular weight 90 kDa"}
{"substance": "Rhizobium radiobacter MDC 8606 N-carbamoyl-β-alanine amidohydrolase (enzyme)", "values": [{"measurement": "stoichiometry N", "value": 2}]}
